From article PMC7097781 (Nature Structural & Molecular Biology, 2013)

Target: T1, human MacroD2 macrodomain (aa 7–243), wild type (human, UniProt A1Z1Q3 7-243)
T1 sequence (looked up): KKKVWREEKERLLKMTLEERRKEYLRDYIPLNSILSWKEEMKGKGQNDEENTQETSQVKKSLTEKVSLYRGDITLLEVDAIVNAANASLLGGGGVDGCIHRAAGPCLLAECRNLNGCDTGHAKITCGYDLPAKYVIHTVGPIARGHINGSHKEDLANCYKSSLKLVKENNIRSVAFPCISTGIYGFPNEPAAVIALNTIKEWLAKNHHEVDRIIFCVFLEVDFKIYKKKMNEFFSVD
Test: pull-down

binding result: binds
B1: GST-PARP10 catalytic domain (aa 818–1025), ADP-ribosylated (domain or fragment, UniProt Q53GL7 818-1025, looked up)
chain: NNLERLAENTGEFQEVVRAFYDTLDAARSSIRVVRVERVSHPLLQQQYELYRERLLQRCERRPVEQVLYHGTTAPAVPDICAHGFNRSFCGRNATVYGKGVYFARRASLSVQDRYSPPNADGHKAVFVARVLTGDYGQGRRGLRAPPLRGPGHVLLRYDSAVDCICQPSIFVIFHDTQALPTHLITCEHVPRASPDDPSGLPGRSPDT
modifications: mono-ADP-ribosylated (automodified; single ADPr units on glutamate residues); sites not stated
